In IntAct's records for PubMed 20618438:

B1: Hereditary hemochromatosis protein (Homo sapiens), Q30201 (parent)
chain: MGPRARPALLLLMLLQTAVLQGRLLRSHSLHYLFMGASEQDLGLSLFEALGYVDDQLFVFYDHESRRVEPRTPWVSSRISSQMWLQLSQSLKGWDHMFTVDFWTIMENHNHSKESHTLQVILGCEMQEDNSTEGYWKYGYDGQDHLEFCPDTLDWRAAEPRAWPTKLEWERHKIRARQNRAYLERDCPAQLQQLLELGRGVLDQQVPPLVKVTHHVTSSVTTLRCRALNYYPQNITMKWLKDKQPMDAKEFEPKDVLPNGDGTYQGWITLAVPPGEEQRYTCQVEHPGLDQPLIVIWEPSPSGTLVIGVISGIAVFVVILFIGILFIILRKRQGSRGAMGHYVLAERE

What was measured:
tfr1_human TFRC, P02786 = variants of: B1; details: with tfr1_human TFRC
Chain of tfr1_human TFRC, P02786 (P02786 whole entry, looked up): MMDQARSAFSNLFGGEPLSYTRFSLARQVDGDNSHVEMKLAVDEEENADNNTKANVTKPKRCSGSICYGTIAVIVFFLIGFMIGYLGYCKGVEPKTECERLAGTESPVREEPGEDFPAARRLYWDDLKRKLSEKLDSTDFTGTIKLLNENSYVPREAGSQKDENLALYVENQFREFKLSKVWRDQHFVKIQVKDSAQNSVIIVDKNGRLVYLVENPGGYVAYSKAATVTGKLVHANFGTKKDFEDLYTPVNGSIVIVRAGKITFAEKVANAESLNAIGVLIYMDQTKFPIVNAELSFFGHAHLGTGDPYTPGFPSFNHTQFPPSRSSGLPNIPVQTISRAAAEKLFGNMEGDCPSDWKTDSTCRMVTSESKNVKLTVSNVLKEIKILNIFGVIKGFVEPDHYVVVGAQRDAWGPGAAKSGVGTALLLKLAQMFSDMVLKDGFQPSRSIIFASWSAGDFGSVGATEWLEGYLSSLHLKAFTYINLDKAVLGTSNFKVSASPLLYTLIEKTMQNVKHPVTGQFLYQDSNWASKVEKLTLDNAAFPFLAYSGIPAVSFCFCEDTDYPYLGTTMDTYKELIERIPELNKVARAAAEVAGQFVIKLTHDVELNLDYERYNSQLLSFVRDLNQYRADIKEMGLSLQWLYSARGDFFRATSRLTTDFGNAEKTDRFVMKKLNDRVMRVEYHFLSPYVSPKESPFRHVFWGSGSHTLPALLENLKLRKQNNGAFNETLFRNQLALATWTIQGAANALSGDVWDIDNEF

trfe_human TF, P02787 [1] = variants of: B1; details: with trfe_human TF
Chain of trfe_human TF, P02787 (P02787 whole entry): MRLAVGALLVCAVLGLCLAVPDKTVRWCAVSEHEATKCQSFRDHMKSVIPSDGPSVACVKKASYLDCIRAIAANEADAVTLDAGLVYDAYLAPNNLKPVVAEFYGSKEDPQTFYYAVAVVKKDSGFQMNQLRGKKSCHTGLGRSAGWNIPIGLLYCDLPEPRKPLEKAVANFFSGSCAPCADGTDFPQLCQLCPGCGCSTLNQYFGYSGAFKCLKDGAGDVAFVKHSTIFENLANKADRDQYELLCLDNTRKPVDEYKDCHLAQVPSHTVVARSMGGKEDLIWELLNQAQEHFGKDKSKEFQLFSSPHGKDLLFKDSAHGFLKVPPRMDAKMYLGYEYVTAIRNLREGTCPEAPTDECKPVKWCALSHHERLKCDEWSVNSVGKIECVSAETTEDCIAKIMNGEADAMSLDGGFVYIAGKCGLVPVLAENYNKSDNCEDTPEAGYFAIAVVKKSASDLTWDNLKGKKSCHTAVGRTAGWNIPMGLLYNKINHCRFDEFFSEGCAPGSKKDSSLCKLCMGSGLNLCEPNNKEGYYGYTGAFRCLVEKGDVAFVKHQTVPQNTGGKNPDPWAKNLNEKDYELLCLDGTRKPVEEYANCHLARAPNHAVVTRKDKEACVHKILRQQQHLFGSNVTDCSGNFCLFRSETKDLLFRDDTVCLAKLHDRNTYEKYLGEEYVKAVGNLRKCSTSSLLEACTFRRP

trfe_human TF, P02787 [2] = variants of: B1; details: with trfe_human TF; remark: listed apart in the source
b2mg_human B2M, P61769 [3] = variants of: B1; details: with b2mg_human B2M
trfe_human TF, P02787 [4] = variants of: B1; details: with trfe_human TF; remark: listed apart in the source
b2mg_human B2M, P61769 [5] = variants of: B1; details: with b2mg_human B2M; remark: listed apart in the source
trfe_human TF, P02787 [6] = variants of: B1; details: with trfe_human TF; remark: listed apart in the source

Row | effect of a mutation on the interaction (tfr1_human TFRC, P02786) | effect of a mutation on the interaction (trfe_human TF, P02787 [1]) | effect of a mutation on the interaction (trfe_human TF, P02787 [2]) | effect of a mutation on the interaction (b2mg_human B2M, P61769 [3]) | effect of a mutation on the interaction (trfe_human TF, P02787 [4]) | effect of a mutation on the interaction (b2mg_human B2M, P61769 [5]) | effect of a mutation on the interaction (trfe_human TF, P02787 [6]) | Variant
1 | disrupting interaction | disrupting interaction | decreasing interaction | disrupting interaction | – | – | – | MGPRARPALLLLMLLQTAVLQGRLLRSHSLHYLFMGASEQDLGLSLFEALGYVDDQLFVFYDHESRRVEPRTPWVSSRISSQMWLQLSQSLKGWDHMFTVDFWTIMENHAHSKESHTLQVILGCEMQEDNSTEGYWKYGYDGQDHLEFCPDTLDWRAAEPRAWPTKLEWERHKIRARQNRAYLERDCPAQLQQLLELGRGVLDQQVPPLVKVTHHVTSSVTTLRCRALNYYPQNITMKWLKDKQPMDAKEFEPKDVLPNGDGTYQGWITLAVPPGEEQRYTCQVEHPGLDQPLIVIWEPSPSGTLVIGVISGIAVFVVILFIGILFIILRKRQGSRGAMGHYVLAERE [N110A]
2 | disrupting interaction | disrupting interaction | decreasing interaction | disrupting interaction | – | – | – | MGPRARPALLLLMLLQTAVLQGRLLRSHSLHYLFMGASEQDLGLSLFEALGYVDDQLFVFYDHESRRVEPRTPWVSSRISSQMWLQLSQSLKGWDHMFTVDFWTIMENHNHSKESHTLQVILGCEMQEDASTEGYWKYGYDGQDHLEFCPDTLDWRAAEPRAWPTKLEWERHKIRARQNRAYLERDCPAQLQQLLELGRGVLDQQVPPLVKVTHHVTSSVTTLRCRALNYYPQNITMKWLKDKQPMDAKEFEPKDVLPNGDGTYQGWITLAVPPGEEQRYTCQVEHPGLDQPLIVIWEPSPSGTLVIGVISGIAVFVVILFIGILFIILRKRQGSRGAMGHYVLAERE [N130A]
3 | – | – | – | – | disrupting interaction | disrupting interaction | – | MGPRARPALLLLMLLQTAVLQGRLLRSHSLHYLFMGASEQDLGLSLFEALGYVDDQLFVFYDHESRRVEPRTPWVSSRISSQMWLQLSQSLKGWDHMFTVDFWTIMENHNHSKESHTLQVILGCEMQEDNSTEGYWKYGYDGQDHLEFCPDTLDWRAAEPRAWPTKLEWERHKIRARQNRAYLERDCPAQLQQLLELGRGVLDQQVPPLVKVTHHVTSSVTTLRCRALNYYPQNITMKWLKDKQPMDAKEFEPKDVLPNGDGTYQGWITLAVPPGEEQRYTYQVEHPGLDQPLIVIWEPSPSGTLVIGVISGIAVFVVILFIGILFIILRKRQGSRGAMGHYVLAERE [C282Y]
4 | – | – | – | disrupting interaction | – | – | decreasing interaction | MGPRARPALLLLMLLQTAVLQGRLLRSHSLHYLFMGASEQDLGLSLFEALGYVDDQLFVFYDHESRRVEPRTPWVSSRISSQMWLQLSQSLKGWDHMFTVDFWTIMENHNHSKESHTLQVILGCEMQEDNSTEGYWKYGYDGQDHLEFCPDTLDWRAAEPRAWPTKLEWERHKIRARQNRAYLERDCPAQLQQLLELGRGVLDQQVPPLVKVTHHVTSSVTTLRCRALNYYPQAITMKWLKDKQPMDAKEFEPKDVLPNGDGTYQGWITLAVPPGEEQRYTCQVEHPGLDQPLIVIWEPSPSGTLVIGVISGIAVFVVILFIGILFIILRKRQGSRGAMGHYVLAERE [N234A]
